Laboratory results as given in FireProtDB (doi:10.1021/bi00200a042).

Details: Saccharomyces cerevisiae (strain ATCC 204508 / S288c); pH 7; 25 °C; GdnHCl; Fluorescence; Potassium phosphate 0.1 M; reversible: yes; structure 1YCC

Sequence of Cytochrome c isoform 1 F88S|C108A, P00044 F88S C108A (P00044 whole entry F88S/C108A, canonical isoform): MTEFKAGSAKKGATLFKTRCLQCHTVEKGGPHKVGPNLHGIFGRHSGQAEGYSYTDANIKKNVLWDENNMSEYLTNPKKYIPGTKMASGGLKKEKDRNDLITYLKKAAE
Sequence of Cytochrome c isoform 1 N58I|C108A, P00044 N58I C108A (P00044 whole entry N58I/C108A, canonical isoform): as the sequence (P00044 whole entry F88S/C108A, canonical isoform) above, with N58I, S88F counted along it
Sequence of Cytochrome c isoform 1 R44A|C108A, P00044 R44A C108A (P00044 whole entry R44A/C108A, canonical isoform): as the sequence (P00044 whole entry F88S/C108A, canonical isoform) above, with R44A, S88F counted along it
Sequence of Cytochrome c isoform 1 N58I|F88S|C108A, P00044 N58I F88S C108A (P00044 whole entry N58I/F88S/C108A, canonical isoform): as the sequence (P00044 whole entry F88S/C108A, canonical isoform) above, with N58I counted along it
Sequence of Cytochrome c isoform 1 C108A, P00044 (P00044 whole entry C108A, canonical isoform): as the sequence (P00044 whole entry F88S/C108A, canonical isoform) above, with S88F counted along it
Sequence of Cytochrome c isoform 1 R44A|N58I|C108A, P00044 R44A N58I C108A (P00044 whole entry R44A/N58I/C108A, canonical isoform): as the sequence (P00044 whole entry F88S/C108A, canonical isoform) above, with R44A, N58I, S88F counted along it
Sequence of Cytochrome c isoform 1 R44A|N58I|F88S|C108A, P00044 R44A N58I F88S C108A (P00044 whole entry R44A/N58I/F88S/C108A, canonical isoform): as the sequence (P00044 whole entry F88S/C108A, canonical isoform) above, with R44A, N58I counted along it

Substance	denaturant m value [kcal/mol/M]	denaturant midpoint (higher = more stable) [M]	unfolding free energy [kcal/mol]
Cytochrome c isoform 1 F88S|C108A, P00044 F88S C108A	3.8	0.9	3.5
Cytochrome c isoform 1 R44A|N58I|F88S|C108A, P00044 R44A N58I F88S C108A	3.6	1.7	6.2
Cytochrome c isoform 1 R44A|N58I|C108A, P00044 R44A N58I C108A	3.8	2.1	8.2
Cytochrome c isoform 1 C108A, P00044	3.9	1.3	5
Cytochrome c isoform 1 N58I|C108A, P00044 N58I C108A	4.2	2.1	9
Cytochrome c isoform 1 R44A|C108A, P00044 R44A C108A	3	1.4	3.8
Cytochrome c isoform 1 N58I|F88S|C108A, P00044 N58I F88S C108A	3.2	1.7	5.5
